B1: His6-tagged ZE (peptide)
peptide: LEIEAAALEQENTALETEVAELEQEVQRLENIVSQYRTRYGPLRSHHHHHH
notes: It was co-expressed with ZR-ELP; also called His6ZE; His6-ZE
B2: ZR-ELP (arginine-rich leucine zipper motif ZR fused with an elastin-like polypeptide) (other)
chain: MKGSLEIRAAALRRRNTALRTRVAELRQRVQRLRNEVSQYETRYGPLGGGGSGGGGSGVPGVGVPGVGVPGFGVPGVGVPGVGVPGVGVPGVGVPGFGVPGVGVPGVGVPGVGVPGVGVPGFGVPGVGVPGVGVPGVGVPGVGVPGFGVPGVGVPGVGVPGVGVPGVGVPGFGVPGVGVPGVGVPGC
notes: Forms ZR/ZR homodimers when no ZE partner is present

Assays:
[1] = target: B2; assay: co-expression in E. coli
Description: to prevent degradation during expression (Park W M, et al., Angew. Chem. Int. Ed., 52 (31), 8098-8101 (2013); Zhang K, et., Chem Bio Chem, 10 (16), 2617-2619 (2009)). Co-expressed ZR-ELP, i.e. the fusion peptide having an amino acid sequence of […](G₄S)₂G[(VPGVG)₂VPGFG(VPGVG)₂]₅VPGC (SEQ ID NO:27) and His₆ZE form a protein complex His₆ZE/ZR-ELP, which is resistant to proteolysis in the cytoplasm. All plasmids (pQE60-His₆ZE/ZR-ELP, pQE60-mCherry-ZE, and pQE60-EGFP-Z₅) were transformed into E. coli strain AFIQ-BL21 for expression. All cell cultures were grown at 37° C. in 2× yeast extract and tryptone (YT) media containing ampicillin (200 mg/L) and chloramphenicol (34 mg/L). When the cell culture optical density at 600 nm reached 0.8, protein expression was induced by 1.0 mM of isopropylβ-thiogalactoside (IPTG). Cells were harvested by centrifugation after 5 hours of expression at 37° C.

[2] = target: the molecule itself; assay: solution at 4 C; circular dichroism confirmed the coiled coil
Experimental: The CD spectra of protein complexes were recorded on a Jasco J-810 spectropolarimeter (JASCO). Protein solution samples were prepared in PBS (pH 7.4), and measurements were performed in a 0.2 cm-length cuvette. The spectra were obtained in 1 nm increments within a wavelength range of 200-300 nm. Mean residue ellipticity was measured from protein solutions containing 5 μM of protein complexes at 4° C. Mean residue ellipticity was converted from accumulated spectra of five measurements for each sample. The peak at a wavelength of 222 nm indicated presence of α-helical coiled-coils of ZR/ZR and ZE/ZR.

binding result [1]	Binder	binding result [2]
binds	B1	
	B2	binds

Source: patent US20160158154A1 (GEORGIA TECH RESEARCH, published 2016)
